Data on two molecules can be found in PMC5501727, “The Structure of the R2TP Complex Defines a Platform for Recruiting Diverse Client Proteins to the HSP90 Molecular Chaperone System” (Structure(London, England:1993), 2017).

The target of one assay is T1, Tah1p-Pih1p complex (yeast, UniProt P25638 1-111; P38768 1-344).
T1 construct: Tah1p, TPR domain protein of yeast R2TP; gene cloned into a modified pET28b (NdeI/BamHI) giving 2xStrep-tagged Tah1p; Pih1p of yeast R2TP; PIH1P gene cloned into p3E (modified pGEX6p) with NdeI and HindIII; Heterodimer of 53 kDa by sedimentation velocity; also called TP; 2xStrep-Tah1p-Pih1p
T1 sequence (looked up) 1: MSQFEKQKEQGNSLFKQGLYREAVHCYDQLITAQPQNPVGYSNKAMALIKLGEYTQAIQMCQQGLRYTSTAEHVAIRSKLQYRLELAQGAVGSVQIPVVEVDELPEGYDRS
T1 sequence (looked up) 2: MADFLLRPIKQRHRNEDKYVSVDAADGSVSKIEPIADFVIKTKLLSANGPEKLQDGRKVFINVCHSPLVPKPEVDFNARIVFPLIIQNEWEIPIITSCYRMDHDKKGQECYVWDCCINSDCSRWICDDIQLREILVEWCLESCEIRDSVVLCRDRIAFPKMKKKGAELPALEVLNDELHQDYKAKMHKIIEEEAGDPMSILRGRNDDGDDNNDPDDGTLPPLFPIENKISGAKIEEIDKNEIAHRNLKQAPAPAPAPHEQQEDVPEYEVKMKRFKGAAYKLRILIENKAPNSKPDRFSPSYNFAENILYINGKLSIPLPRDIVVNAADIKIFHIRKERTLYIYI
The experiment in a line: AUC; sedimentation velocity, 43,000 rpm, samples 2 to 4 μM in 20 mM HEPES pH 7.8, 140 mM NaCl, 5 mM MgCl2, 0.5 mM EDTA, 0.5 mM TCEP; TP alone, R2 alone, and R2 mixed with TP at 1:2.4 molar ratio. Particulars: both partners purified.

The next assay addresses T2, Rvb2p (Saccharomyces cerevisiae, UniProt Q12464 1-471).
T2 construct: gene (Genscript) cloned into a modified pRSETA (containing 3X Myc-tags) with NheI and HindIII; also called Rvb2p-only complex; source: Rosetta (DE3) pLysS, co-expressed with Rvb1p, purified (Talon, gel filtration)
The assay is described as above. The settings on record: both partners purified.

B1: Rvb1p-Rvb2p complex (hetero-hexamer) (complex, Saccharomyces cerevisiae)
chain 1: MVAISEVKENPGVNSSNSGAVTRTAAHTHIKGLGLDESGVAKRVEGGFVGQIEAREACGVIVDLIKAKKMSGRAILLAGGPSTGKTALALAISQELGPKVPFCPLVGSELYSVEVKKTETLMENFRRAIGLRIKETKEVYEGEVTELTPEDAENPLGGYGKTISHVIVGLKSAKGTKTLRLDPTIYESIQREKVSIGDVIYIEANTGAVKRVGRSDAYATEFDLETEEYVPLPKGEVHKKKEIVQDVTLHDLDVANARPQGGQDVISMMGQLLKPKKTEITEKLRQEVNKVVAKYIDQGVAELIPGVLFIDEVNMLDIEIFTYLNKALESNIAPVVVLASNRGMTTVRGTEDVISPHGVPPDLIDRLLIVRTLPYDKDEIRTIIERRATVERLQVESSALDLLATMGTETSLRYALQLLAPCGILAQTSNRKEIVVNDVNEAKLLFLDAKRSTKILETSANYL
chain 2: MSIQTSDPNETSDLKSLSLIAAHSHITGLGLDENLQPRPTSEGMVGQLQARRAAGVILKMVQNGTIAGRAVLVAGPPSTGKTALAMGVSQSLGKDVPFTAIAGSEIFSLELSKTEALTQAFRKSIGIKIKEETELIEGEVVEIQIDRSITGGHKQGKLTIKTTDMETIYELGNKMIDGLTKEKVLAGDVISIDKASGKITKLGRSFARSRDYDAMGADTRFVQCPEGELQKRKTVVHTVSLHEIDVINSRTQGFLALFTGDTGEIRSEVRDQINTKVAEWKEEGKAEIVPGVLFIDEVHMLDIECFSFINRALEDEFAPIVMMATNRGVSKTRGTNYKSPHGLPLDLLDRSIIITTKSYNEQEIKTILSIRAQEEEVELSSDALDLLTKTGVETSLRYSSNLISVAQQIAMKRKNNTVEVEDVKRAYLLFLDSARSVKYVQENESQYIDDQGNVQISIAKSADPDAMDTTE
notes: Rvb1p, AAA+ ATPase of yeast R2TP; gene (Genscript) cloned into pET28b with NdeI and BamHI; gene (Genscript) cloned into a modified pRSETA (containing 3X Myc-tags) with NheI and HindIII; also called R2; Rvb1p-Rvb2p hexamer; copies: 3 + 3
A word on the stoichiometry N: it is a count of units in the complex or per binding partner. On to B1, for which the “stoichiometry N” value with Tah1p-Pih1p complex is 1 Rvb1p-Rvb2p hetero-hexamer per Tah1p-Pih1p complex.

B2: Rvb1p (natural protein, Saccharomyces cerevisiae, UniProt Q03940 1-463, looked up)
chain: B1 chain 1
notes: Rvb1p, AAA+ ATPase of yeast R2TP; gene (Genscript) cloned into pET28b with NdeI and BamHI; also called Rvb1p-only complex
B2: the “stoichiometry N” value with Rvb2p is 1 Rvb1p per Rvb2p (3:3).
